Biological target: T1, 19-mer (SEQ ID NO:11) cleavage domain peptide
T1 chain: PRCGNPDVANYNFFPRKPK

B1: Proenzyme pro-MMP-9 (protein)
chain: APRQRQSTLVLFPGDLRTNLTDRQLAEEYLYRYGYTRVAEMRGESKSLGPALLLLQKQLSLPETGELDSATLKAMRTPRCGVPDLGRFQTFEGDLKWHHHNITYWIQNYSEDLPRAVIDDAFARAFALWSAVTPLTFTRVYSRDADIVIQFGVAEHGDGYPFDGKDGLLAHAFPPGPGIQGDAHFDDDELWSLGKGVVVPTRFGNADGAACHFPFIFEGRSYSACTTDGRSDGLPWCSTTANYDTDDRFGFCPSERLYTQDGNADGKPCQFPFIFQGQSYSACTTDGRSDGYRWCATTANYDRDKLFGFCPTRADSTVMGGNSAGELCVFPFTFLGKEYSTCTSEGRGDGRLWCATTSNFDSDKKWGFCPDQGYSLFLVAAHEFGHALGLDHSSVPEALMYPMYRFTEGPPLHKDDVNGIRHLYGPRPEPEPRPPTTTTPQPTAPPTVCPTGPPTVHPSERPTAGPTGPPSAGPTGPPTAGPSTATTVPLSPVDDACNVNIFDAIAEIGNQLYLFKDGKYWRFSEGRGSRPQGPFLIADKWPALPRKLDSVFEERLSKKLFFFSGRQVWVYTGASVLGPRRLDKLGLGADVAQVTGALRSGRGKMLLFSGRRLWRFDVKAQMVDPRSASEVDRMFPGVPLDTHDVFQYREKAYFCQDRFYWRVSSRSELNQVDQVGYVTYDILQCPED
  anti-activation (splicing) assay: conversion of pro-MMP-9 by stromilysin, HPLC peak areas: Titrating the standard splicing reaction with the 19-mer (SEQ ID NO:11) peptide prevents the conversion of pro-MMP-9 into the prodomain and the active enzyme. Splicing can be inhibited in a dose dependent manner with micromolar 19-mer (SEQ ID NO:11) peptide.
